Data taken from publication PMC12655336, “Study on the High-Efficiency Expression of Horseradish Peroxidase in Pichia pastoris” (Molecules, 2025).

Columns and labels:
[1] = substrate: Nc1ccccc1N; assay: spectrophotometric oxidation, Michaelis-Menten fit; format: biochemical, Armoracia rusticana; conditions: 1 mM H2O2, 37 °C, 492 nm, deglycosylated enzyme
Description: (§1) spectrophotometric oxidation, Michaelis-Menten fit on Degly-HRP

[2] = substrate: CCn1c(=NN=c2sc3cc(S(=O)(=O)O)ccc3n2CC)sc2cc(S(=O)(=O)O)ccc21; assay: spectrophotometric oxidation, Michaelis-Menten fit; format: biochemical, Armoracia rusticana; conditions: 1 mM H2O2, 37 °C, 415 nm, deglycosylated enzyme
Description: as §1

[3] = substrate: Cc1cc(-c2cc(C)c(N)c(C)c2)cc(C)c1N; assay: spectrophotometric oxidation, Michaelis-Menten fit; format: biochemical, Armoracia rusticana; conditions: 1 mM H2O2, 37 °C, 450 nm, deglycosylated enzyme
Description: as §1

purified protein = substrate: COc1ccccc1O; assay: purified protein; conditions: 1 mM H2O2, 37 °C, 436 nm
[4] = substrate: Nc1ccccc1N; assay: spectrophotometric oxidation, Michaelis-Menten fit; format: biochemical, Armoracia rusticana; conditions: 1 mM H2O2, 37 °C, 492 nm, glycosylated enzyme
Description: (§2) spectrophotometric oxidation, Michaelis-Menten fit on HRP-C (W-HRP)

[5] = substrate: CCn1c(=NN=c2sc3cc(S(=O)(=O)O)ccc3n2CC)sc2cc(S(=O)(=O)O)ccc21; assay: spectrophotometric oxidation, Michaelis-Menten fit; format: biochemical, Armoracia rusticana; conditions: 1 mM H2O2, 37 °C, 415 nm, glycosylated enzyme
Description: as §2

B1: Degly-HRP (Armoracia rusticana) (protein)
chain: QLTPTFYDNSCPNVSNIVRDTIVNELRSDPRIAASILRLHFHDCFVNGCDASILLDNTTSFRTEKDAFGNANSARGFPVIDRMKAAVESACPRTVSCADLLTIAAQQSVTLAGGPSWRVPLGRRDSLQAFLDLANANLPAPFFTLPQLKDSFRNVGLNRSSDLVALSGGHTFGKNQCRFIMDRLYNFSNTGLPDPTLNTTYLQTLRGLCPLNGNLSALVDFDLRTPTIFDNKYYVNLEEQKGLIQSDQELFSSPNATDTIPLVRSFANSTQTFFNAFVEAMDRMGNITPLTGTQGQIRLNCRVVNSNS
notes: same HRP-C from Pichia pastoris GS115, His-tagged, Ni-NTA purified; deglycosylated with EndoH (O-glycans may remain)
Km [1]: 41 µM | kcat [1]: 745 s⁻¹ | Km [2]: 45.35 µM | kcat [2]: 238 s⁻¹ | Km [3]: 96 µM | kcat [3]: 238 s⁻¹ | Km (purified protein; deglycosylated enzyme): 20.59 µM | kcat (purified protein; deglycosylated enzyme): 270 s⁻¹

B2: HRP-C (W-HRP) (Armoracia rusticana) (protein)
chain: QLTPTFYDNSCPNVSNIVRDTIVNELRSDPRIAASILRLHFHDCFVNGCDASILLDNTTSFRTEKDAFGNANSARGFPVIDRMKAAVESACPRTVSCADLLTIAAQQSVTLAGGPSWRVPLGRRDSLQAFLDLANANLPAPFFTLPQLKDSFRNVGLNRSSDLVALSGGHTFGKNQCRFIMDRLYNFSNTGLPDPTLNTTYLQTLRGLCPLNGNLSALVDFDLRTPTIFDNKYYVNLEEQKGLIQSDQELFSSPNATDTIPLVRSFANSTQTFFNAFVEAMDRMGNITPLTGTQGQIRLNCRVVNSNS
notes: codon-optimised synthetic HRP-C gene, secreted from Pichia pastoris GS115 with MF4I signal peptide, His-tagged, Ni-NTA purified; glycosylated (not EndoH treated)
kcat (purified protein; glycosylated enzyme): 291 s⁻¹ | Km [4]: 36 µM | kcat [4]: 747 s⁻¹ | Km [5]: 48.55 µM | kcat [5]: 267 s⁻¹
